According to publication PMC11079029, “Intramolecular autoinhibition regulates the selectivity of PRPF40A tandem WW domains for proline-rich motifs” (Nature Communications, 2024):

Test system: GFP-tagged PRPF40A-Nter-MUT
Assay: SILAC GFP-immunoprecipitation with quantitative mass spectrometry, mutant construct
Assay type: binding, human (Hela cells)
Settings: quantitative MS, Hela cells, protein by gene name
Procedure, shortened: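 GFP-tagged PRPF40A N-terminal region (isoform 2, residues 1–221) with PPVP/PALPP motifs mutated to alanines, transiently expressed 24 h in SILAC-labelled HeLa cells alongside GFP control. Lysates (2.5 mg) pulled down on GFP-nanobody beads 1 h at 4 °C; pooled eluates trypsin-digested and quantified by LC-MS/MS on Orbitrap.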

Molecule	Immunoprecipitation enrichment MUT vs WT, log2 FC
NKRF (protein, UniProt O15226 1-690, looked up) NF-kappa-B-repressing factor: MEKILQMAEGIDIGEMPSYDLVLSKPSKGQKRHLSTCDGQNPPKKQAGSKFHARPRFEPVHFVASSSKDERQEDPYGPQTKEVNEQTHFASMPRDIYQDYTQDSFSIQDGNSQYCDSSGFILTKDQPVTANMYFDSGNPAPSTTSQQANSQSTPEPSPSQTFPESVVAEKQYFIEKLTATIWKNLSNPEMTSGSDKINYTYMLTRCIQACKTNPEYIYAPLKEIPPADIPKNKKLLTDGYACEVRCQNIYLTTGYAGSKNGSRDRATELAVKLLQKRIEVRVVRRKFKHTFGEDLVVCQIGMSSYEFPPALKPPEDLVVLGKDASGQPIFNASAKHWTNFVITENANDAIGILNNSASFNKMSIEYKYEMMPNRTWRCRVFLQDHCLAEGYGTKKTSKHAAADEALKILQKTQPTYPSVKSSQCHTGSSPRGSGKKKDIKDLVVYENSSNPVCTLNDTAQFNRMTVEYVYERMTGLRWKCKVILESEVIAEAVGVKKTVKYEAAGEAVKTLKKTQPTVINNLKKGAVEDVISRNEIQGRSAEEAYKQQIKEDNIGNQLLRKMGWTGGGLGKSGEGIREPISVKEQHKREGLGLDVERVNKIAKRDIEQIIRNYARSESHTDLTFSRELTNDERKQIHQIAQKYGLKSKSHGVGHDRYLVVGRKRRKEDLLDQLKQEGQVGHYELVMPQAN	1.452
FAM120A (protein, UniProt Q9NZB2 1-1118, looked up) Constitutive coactivator of …: MGVQGFQDYIEKHCPSAVVPVELQKLARGSLVGGGRQRPPQTPLRLLVDADNCLHRLYGGFYTDWVSGGQWNHMLGYLAALAKACFGGNIELFVFFNGALEKARLHEWVKRQGNERQTAQQIVSHVQNKGTPPPKVWFLPPVCMAHCIRLALIRFHVKVAQSIEDHHQEVIGFCRENGFHGLVAYDSDYALCNIPYYFSAHALKLSRNGKSLTTSQYLMHEVAKQLDLNPNRFPIFAALLGNHILPDEDLASFHWSLLGPEHPLASLKVRAHQLVLPPCDVVIKAVADYVRNIQDTSDLDAIAKDVFQHSQSRTDDKVIRFKRAIGYYSATSKPMSFHPPHYLAARPGPFGMPGMVPPHVPPQMLNIPQTSLQAKPVAPQVPSPGGAPGQGPYPYSLSEPAPLTLDTSGKNLTEQNSYSNIPHEGKHTPLYERSSPINPAQSGSPNHVDSAYFPGSSTSSSSDNDEGSGGATNHISGNKIGWEKTGSHSEPQARGDPGDQTKAEGSSTASSGSQLAEGKGSQMGTVQPIPCLLSMPTRNHMDITTPPLPPVAPEVLRVAEHRHKKGLMYPYIFHVLTKGEIKIAVSIEDEANKDLPPAALLYRPVRQYVYGVLFSLAESRKKTERLAFRKNRLPPEFSPVIIKEWAAYKGKSPQTPELVEALAFREWTCPNLKRLWLGKAVEDKNRRMRAFLACMRSDTPAMLNPANVPTHLMVLCCVLRYMVQWPGARILRRQELDAFLAQALSPKLYEPDQLQELKIENLDPRGIQLSALFMSGVDMALFANDACGQPIPWEHCCPWMYFDGKLFQSKLLKASREKTPLIDLCDGQADQAAKVEKMRQSVLEGLSFSRQSHTLPFPPPPALPFYPASAYPRHFGPVPPSQGRGRGFAGVCGFGGPYGETVATGPYRAFRVAAASGHCGAFSGSDSSRTSKSQGGVQPIPSQGGKLEIAGTVVGHWAGSRRGRGGRGPFPLQVVSVGGPARGRPRGVISTPVIRTFGRGGRYYGRGYKNQAAIQGRPPYAASAEEVAKELKSKSGESKSSAMSSDGSLAENGVMAEEKPAPQMNGSTGDARAPSHSESALNNDSKTCNTNPHLNALSTDSACRREAALEAAVLNKEE	1.247
LARP7 (protein, UniProt Q4G0J3 1-582, looked up) La-related protein 7: METESGNQEKVMEEESTEKKKEVEKKKRSRVKQVLADIAKQVDFWFGDANLHKDRFLREQIEKSRDGYVDISLLVSFNKMKKLTTDGKLIARALRSSAVVELDLEGTRIRRKKPLGERPKDEDERTVYVELLPKNVNHSWIERVFGKCGNVVYISIPHYKSTGDPKGFAFVEFETKEQAAKAIEFLNNPPEEAPRKPGIFPKTVKNKPIPALRVVEEKKKKKKKKGRMKKEDNIQAKEENMDTSNTSISKMKRSRPTSEGSDIESTEPQKQCSKKKKKRDRVEASSLPEVRTGKRKRSSSEDAESLAPRSKVKKIIQKDIIKEASEASKENRDIEISTEEEKDTGDLKDSSLLKTKRKHKKKHKERHKMGEEVIPLRVLSKSEWMDLKKEYLALQKASMASLKKTISQIKSESEMETDSGVPQNTGMKNEKTANREECRTQEKVNATGPQFVSGVIVKIISTEPLPGRKQVRDTLAAISEVLYVDLLEGDTECHARFKTPEDAQAVINAYTEINKKHCWKLEILSGDHEQRYWQKILVDRQAKLNQPREKKRGTEKLITKAEKIRLAKTQQASKHIRFSEYD	1.221
